Assay results reported in article PMC4222845.

Key:
[1] = target: CopNΔ84 (C. pneumoniae AR39); assay: SEC; Superdex 200 10/300 GL, 10 mM Tris-HCl pH 7.5, 150 mM NaCl, 0.5 mL/min, 4°C; equivalent molar concentrations, incubated 15 minutes; molecular weight from BioRad gel-filtration standards
[2] = target: Scc3 (C. pneumoniae AR39); assay: ITC
[3] = target: Scc3-CopNΔ84 complex (C. pneumoniae AR39); assay: ITC

Row | Substance | stoichiometry N [1] | Kd [2] [µM] | Kd [3] [µM]
1 | Scc3 (natural protein) | 1 |  | 
2 | synthetic peptide (CopB residues 163–173) |  | 79 | 49
